From US20120244563A1 (J OIL MILLS, published 2012)
Blank lines part the entries; values can stand above or below the binder they belong to.

Assays:
[1] = target: T1, Haptoglobin from human serum (human, UniProt P00738 19-406, limits assumed, N-linked and O-linked glycans containing almost no fucose); experiment: ELISA; glycoprotein coated at 10 ng/mL, biotin-labeled lectin
T1 construct: Natural haptoglobin is processed into α and β chains; also called Haptoglobin (HP); Serum HP
T1 sequence (looked up): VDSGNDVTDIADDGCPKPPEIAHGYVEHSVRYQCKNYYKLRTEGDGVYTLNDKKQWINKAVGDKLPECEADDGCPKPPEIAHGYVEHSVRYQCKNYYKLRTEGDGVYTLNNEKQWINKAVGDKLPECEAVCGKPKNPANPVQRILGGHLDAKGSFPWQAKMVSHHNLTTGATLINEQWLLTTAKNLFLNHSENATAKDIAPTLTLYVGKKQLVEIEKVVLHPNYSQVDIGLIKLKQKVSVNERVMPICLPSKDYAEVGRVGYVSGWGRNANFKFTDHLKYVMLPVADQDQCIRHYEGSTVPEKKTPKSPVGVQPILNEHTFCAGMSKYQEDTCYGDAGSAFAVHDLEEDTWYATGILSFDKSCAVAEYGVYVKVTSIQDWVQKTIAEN
Procedure: (§1) Serum glycoprotein (human serum albumin (CALBIOCHEM), Immunoglobulin G (Sigma), transferrin (Sigma), fibrinogen (AbD Serotec), Immunoglobulin A (BETYL) α2-macroglobulin (BMO), Immunoglobulin M (ROCKLAND), Complement C3 (CALBIOCHEM), haptoglobin (BIODESIGN), α1-acidic glycoprotein (Sigma), α-fetoprotein (Fitzgerald), α-fetoprotein L3 (Wako Pure Chemical Industries, Ltd) and prostate-specific antigen (Scipac) were dissolved in PBS at 1 mg/mL, and further diluted to 10 ng/mL with 0.1 M carbonate buffer (pH 9.5). Fifty μL of the diluted solution was added to a microtiter plate (Nunc 439454), and then incubated at 37° C. for 1 hour. After washed once with 0.05% Tween 20 (polyoxyethylene sorbitan monolaurate) (hereafter abbreviated as Tween)/PBS, 200 μL, of 1% bovine serum albumin (BSA)/PBS was added to the wells, and then incubated at 37° C. for 1 hour. The plate was washed twice with 0.05% Tween/PBS.
(§2) Fifty μL of the biotin labeled lectin solution prepared to 1 μg/mL with 1% BSA/0.05% Tween/PBS was added to the wells, and then left at room temperature for 1 hour. After washed twice with 0.05% Tween/PBS, 50 μL of the HRP labeled streptavidin solution (1 μg/mL) diluted with 1% BSA/0.05% Tween/PBS was added to the wells, and then left at room temperature for 30 minutes. After washed three times with 0.05% Tween/PBS, 50 μL of the HRP chromogenic substrate (product name: TMB Peroxidase substrate system, KPL) was added, and then left at room temperature for 5 minutes.
(§3) The absorbance values at 450 nm were subtracted by the absorbance value from the well on the plate in which no glycoprotein was immobilized, and the resulting values were taken as reaction values. Affinity was ranked by classifying the reaction values according to the following criteria.

Human serum albumin [2] = target: T2, Human serum albumin (human, UniProt P02768 25-609); experiment: as above
T2 construct: Bought protein coated on the plate; also called HAS
Procedure: as §1, §2, §3

Immunoglobulin A = target: T3, Immunoglobulin A; experiment: ELISA; coated glycoprotein, biotin-labeled lectin 1 µg/mL; grade of A450 reaction value (Low 0.1 to 0.2, Moderate 0.2 to 0.5, High 0.5 or more)
T3 construct: Serum glycoprotein coated on the plate; also called IgA
Procedure: as §1, §2, §3

α2-Macroglobulin = target: T4, α2-Macroglobulin; experiment: as above
T4 construct: Bought protein coated on the plate; also called α2MG
T4 sequence (P01023 24-1474, species assumed, looked up): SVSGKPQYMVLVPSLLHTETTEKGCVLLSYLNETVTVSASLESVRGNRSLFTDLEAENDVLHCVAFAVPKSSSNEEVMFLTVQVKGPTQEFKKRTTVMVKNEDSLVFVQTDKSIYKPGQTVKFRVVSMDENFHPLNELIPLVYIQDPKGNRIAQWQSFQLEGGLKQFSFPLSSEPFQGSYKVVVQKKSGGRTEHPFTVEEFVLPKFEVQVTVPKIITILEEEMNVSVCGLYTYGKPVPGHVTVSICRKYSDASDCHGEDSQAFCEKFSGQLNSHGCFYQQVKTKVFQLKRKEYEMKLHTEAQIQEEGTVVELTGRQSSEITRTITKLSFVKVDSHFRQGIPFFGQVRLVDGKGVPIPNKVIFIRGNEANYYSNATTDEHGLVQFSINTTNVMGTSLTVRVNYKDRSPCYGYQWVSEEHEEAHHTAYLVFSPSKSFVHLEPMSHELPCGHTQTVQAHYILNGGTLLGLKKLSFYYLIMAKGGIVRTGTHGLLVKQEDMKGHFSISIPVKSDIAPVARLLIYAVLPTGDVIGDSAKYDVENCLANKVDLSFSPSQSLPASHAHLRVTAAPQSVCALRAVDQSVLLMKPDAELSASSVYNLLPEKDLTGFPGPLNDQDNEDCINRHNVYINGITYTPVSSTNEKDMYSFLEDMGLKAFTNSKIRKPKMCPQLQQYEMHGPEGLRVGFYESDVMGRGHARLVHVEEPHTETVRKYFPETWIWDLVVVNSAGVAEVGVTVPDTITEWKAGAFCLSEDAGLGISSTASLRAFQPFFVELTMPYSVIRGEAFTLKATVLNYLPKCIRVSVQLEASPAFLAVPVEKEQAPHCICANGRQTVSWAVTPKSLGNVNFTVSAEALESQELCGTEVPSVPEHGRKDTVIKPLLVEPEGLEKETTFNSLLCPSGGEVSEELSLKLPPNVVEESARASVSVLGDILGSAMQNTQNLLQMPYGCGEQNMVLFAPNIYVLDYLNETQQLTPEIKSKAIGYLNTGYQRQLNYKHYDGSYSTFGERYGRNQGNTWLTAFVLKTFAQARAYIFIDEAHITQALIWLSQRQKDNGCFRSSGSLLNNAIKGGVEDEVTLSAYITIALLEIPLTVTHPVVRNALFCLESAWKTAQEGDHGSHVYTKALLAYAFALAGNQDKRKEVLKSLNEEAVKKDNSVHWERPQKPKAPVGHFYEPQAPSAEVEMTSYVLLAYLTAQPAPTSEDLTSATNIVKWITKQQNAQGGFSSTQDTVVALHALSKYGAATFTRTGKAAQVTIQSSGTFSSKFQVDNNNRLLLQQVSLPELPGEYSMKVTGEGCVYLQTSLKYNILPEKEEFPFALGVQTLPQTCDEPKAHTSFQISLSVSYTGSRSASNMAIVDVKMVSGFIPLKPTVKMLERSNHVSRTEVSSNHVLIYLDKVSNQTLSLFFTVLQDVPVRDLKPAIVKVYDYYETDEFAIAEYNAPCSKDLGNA
Procedure: as §1, §2, §3

Immunoglobulin M = target: T5, Immunoglobulin M; experiment: as above
T5 construct: Serum glycoprotein coated on the plate; also called IgM
Procedure: as §1, §2, §3

Complement C3 = target: T6, Complement C3; experiment: as above
T6 construct: Bought protein coated on the plate
Procedure: as §1, §2, §3

[3] = target: T1, Haptoglobin from human serum; experiment: as above
Procedure: as §1, §2, §3

α1-Acid glycoprotein = target: T7, α1-Acid glycoprotein; experiment: as above
T7 construct: Bought protein coated on the plate; also called AGP; α1-acidic glycoprotein
Procedure: as §1, §2, §3

Human serum albumin [4] = target: T2, Human serum albumin; experiment: as above
Procedure: as §1, §2, §3

Immunoglobulin G = target: T8, Immunoglobulin G; experiment: as above
T8 construct: Serum glycoprotein coated on the plate; also called IgG
Procedure: as §1, §2, §3

Transferrin = target: T9, Transferrin; experiment: as above
T9 construct: Bought protein coated on the plate; also called TF
Procedure: as §1, §2, §3

Fibrinogen = target: T10, Fibrinogen; experiment: as above
T10 construct: Bought protein coated on the plate; also called FB
Procedure: as §1, §2, §3

T2 sequence (P02768 25-609 limits assumed): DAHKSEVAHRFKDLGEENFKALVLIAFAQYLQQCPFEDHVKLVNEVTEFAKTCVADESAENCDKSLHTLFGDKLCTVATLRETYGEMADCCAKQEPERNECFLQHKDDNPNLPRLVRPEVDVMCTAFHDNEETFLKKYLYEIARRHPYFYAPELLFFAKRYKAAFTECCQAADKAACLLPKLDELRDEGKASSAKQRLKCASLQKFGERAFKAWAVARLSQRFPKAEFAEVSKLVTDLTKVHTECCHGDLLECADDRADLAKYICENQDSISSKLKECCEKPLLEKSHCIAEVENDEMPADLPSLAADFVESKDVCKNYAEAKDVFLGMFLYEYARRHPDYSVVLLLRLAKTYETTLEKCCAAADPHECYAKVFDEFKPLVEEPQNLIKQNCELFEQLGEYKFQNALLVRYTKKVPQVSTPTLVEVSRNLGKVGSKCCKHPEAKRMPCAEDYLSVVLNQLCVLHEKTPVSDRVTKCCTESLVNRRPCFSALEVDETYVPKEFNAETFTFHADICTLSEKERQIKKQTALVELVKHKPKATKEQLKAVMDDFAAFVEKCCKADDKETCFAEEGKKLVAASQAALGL
T7 sequence (P02763 19-201): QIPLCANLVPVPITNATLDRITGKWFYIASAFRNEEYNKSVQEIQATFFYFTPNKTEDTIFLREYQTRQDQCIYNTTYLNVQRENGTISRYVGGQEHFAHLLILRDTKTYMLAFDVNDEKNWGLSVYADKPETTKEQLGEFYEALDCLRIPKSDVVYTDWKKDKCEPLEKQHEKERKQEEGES
T9 sequence (P02787 20-698): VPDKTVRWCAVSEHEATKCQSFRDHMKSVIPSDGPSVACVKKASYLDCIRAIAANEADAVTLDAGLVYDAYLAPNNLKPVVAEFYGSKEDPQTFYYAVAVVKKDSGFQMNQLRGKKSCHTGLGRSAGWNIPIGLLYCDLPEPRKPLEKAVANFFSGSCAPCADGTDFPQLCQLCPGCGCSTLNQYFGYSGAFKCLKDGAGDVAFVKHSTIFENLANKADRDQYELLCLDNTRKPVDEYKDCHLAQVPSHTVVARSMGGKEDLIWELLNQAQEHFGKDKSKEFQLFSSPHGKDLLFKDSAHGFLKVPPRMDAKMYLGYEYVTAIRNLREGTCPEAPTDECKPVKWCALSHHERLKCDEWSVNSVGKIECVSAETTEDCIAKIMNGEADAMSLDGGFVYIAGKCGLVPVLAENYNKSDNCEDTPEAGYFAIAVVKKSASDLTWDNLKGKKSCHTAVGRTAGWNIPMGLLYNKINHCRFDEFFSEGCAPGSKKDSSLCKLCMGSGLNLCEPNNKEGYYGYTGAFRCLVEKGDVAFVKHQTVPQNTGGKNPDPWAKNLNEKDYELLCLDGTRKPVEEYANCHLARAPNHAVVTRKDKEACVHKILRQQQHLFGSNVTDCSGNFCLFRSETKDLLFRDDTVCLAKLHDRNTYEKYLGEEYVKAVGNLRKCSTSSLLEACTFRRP
T6 sequence (P01024 23-667, chain 1 of 2): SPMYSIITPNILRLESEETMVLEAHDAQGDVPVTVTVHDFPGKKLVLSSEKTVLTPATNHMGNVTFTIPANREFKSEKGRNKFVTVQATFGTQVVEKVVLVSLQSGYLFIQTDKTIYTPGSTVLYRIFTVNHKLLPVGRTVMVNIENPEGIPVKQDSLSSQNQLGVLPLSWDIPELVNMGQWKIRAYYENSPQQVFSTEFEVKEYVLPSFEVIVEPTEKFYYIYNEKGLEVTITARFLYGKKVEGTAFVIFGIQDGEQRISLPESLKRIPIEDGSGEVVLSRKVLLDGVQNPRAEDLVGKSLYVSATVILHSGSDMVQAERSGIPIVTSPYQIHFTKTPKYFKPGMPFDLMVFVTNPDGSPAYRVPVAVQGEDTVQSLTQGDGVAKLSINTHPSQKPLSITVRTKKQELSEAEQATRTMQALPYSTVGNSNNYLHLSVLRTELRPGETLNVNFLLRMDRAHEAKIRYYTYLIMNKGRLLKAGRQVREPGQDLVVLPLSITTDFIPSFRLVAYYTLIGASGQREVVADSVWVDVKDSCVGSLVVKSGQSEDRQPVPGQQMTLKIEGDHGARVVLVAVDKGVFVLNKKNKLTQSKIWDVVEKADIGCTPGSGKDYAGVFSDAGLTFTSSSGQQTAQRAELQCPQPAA
T6 sequence (P01024 672-1663, chain 2 of 2): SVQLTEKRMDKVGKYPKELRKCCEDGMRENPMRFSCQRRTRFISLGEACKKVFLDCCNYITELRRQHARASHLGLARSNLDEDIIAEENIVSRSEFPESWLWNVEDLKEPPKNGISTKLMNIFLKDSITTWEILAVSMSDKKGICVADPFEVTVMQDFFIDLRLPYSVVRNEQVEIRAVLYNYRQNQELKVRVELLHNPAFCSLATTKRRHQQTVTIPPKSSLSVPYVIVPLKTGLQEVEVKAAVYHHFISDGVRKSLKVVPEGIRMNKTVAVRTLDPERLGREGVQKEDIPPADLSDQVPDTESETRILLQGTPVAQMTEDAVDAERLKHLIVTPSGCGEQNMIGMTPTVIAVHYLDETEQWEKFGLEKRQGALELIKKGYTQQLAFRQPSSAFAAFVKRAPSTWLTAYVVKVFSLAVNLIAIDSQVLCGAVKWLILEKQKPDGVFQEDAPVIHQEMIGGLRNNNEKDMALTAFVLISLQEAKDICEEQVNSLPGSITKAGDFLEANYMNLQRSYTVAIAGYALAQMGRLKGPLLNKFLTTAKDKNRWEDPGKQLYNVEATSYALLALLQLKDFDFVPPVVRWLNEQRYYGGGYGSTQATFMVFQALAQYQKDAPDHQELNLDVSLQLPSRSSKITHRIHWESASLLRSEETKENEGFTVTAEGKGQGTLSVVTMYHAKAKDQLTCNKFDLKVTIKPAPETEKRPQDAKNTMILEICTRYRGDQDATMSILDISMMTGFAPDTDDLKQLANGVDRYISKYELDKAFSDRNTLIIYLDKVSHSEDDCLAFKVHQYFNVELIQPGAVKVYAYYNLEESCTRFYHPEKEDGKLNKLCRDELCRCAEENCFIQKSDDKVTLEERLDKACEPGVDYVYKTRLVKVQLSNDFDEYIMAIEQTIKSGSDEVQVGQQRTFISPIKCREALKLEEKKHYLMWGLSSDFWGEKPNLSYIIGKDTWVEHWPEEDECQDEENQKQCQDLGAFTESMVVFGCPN

binding result [1]: no binding | binding result (Human serum albumin [2]): no binding
B1: Ulex europaeus lectin (other, UniProt P22972 1-243, looked up)
chain: SDDLSFKFKNFSQNGKDLSFQGDASVIETGVLQLNKVGNNLPDETGGIARYIAPIHIWNCNTGEVASFITSFSFFMETSANPKAATDGLTFFLAPPDSPLRRAGGYFGLFEDTKDNDSSYQTVAVEFDTIGSPVNFDDPGFPHIGIDVNRVKSINAERWNKRYGLNNVANVEIIYEASSKTLTASLTYPSDQTSISVTSIVDLKEILPEWVSVGFSGGTYIGRQATHEVLNWYFTSNLINTNS
modifications: biotin label (site not stated)
notes: Bought, biotin-labeled; also called UEA-I; UEA- 1

reaction value (absorbance at 450 nm minus blank) (Immunoglobulin A): 0.2 to 0.5 od | reaction value (absorbance at 450 nm minus blank) (α2-Macroglobulin): ≥ 0.5 od | reaction value (absorbance at 450 nm minus blank) (Immunoglobulin M): 0.2 to 0.5 od | reaction value (absorbance at 450 nm minus blank) (Complement C3): 0.1 to 0.2 od | reaction value (absorbance at 450 nm minus blank) [3]: 0.1 to 0.2 od | reaction value (absorbance at 450 nm minus blank) (α1-Acid glycoprotein): 0.2 to 0.5 od | reaction value (absorbance at 450 nm minus blank) (Human serum albumin [4]): 0.1 to 0.2 od | reaction value (absorbance at 450 nm minus blank) (Immunoglobulin G): 0.1 to 0.2 od | reaction value (absorbance at 450 nm minus blank) (Transferrin): 0.1 to 0.2 od | reaction value (absorbance at 450 nm minus blank) (Fibrinogen): 0.1 to 0.2 od
B2: Aleuria aurantia lectin (other, UniProt P18891 2-313, looked up)
chain: PTEFLYTSKIAAISWAATGGRQQRVYFQDLNGKIREAQRGGDNPWTGGSSQNVIGEAKLFSPLAAVTWKSAQGIQIRVYCVNKDNILSEFVYDGSKWITGQLGSVGVKVGSNSKLAALQWGGSESAPPNIRVYYQKSNGSGSSIHEYVWSGKWTAGASFGSTVPGTGIGATAIGPGRLRIYYQATDNKIREHCWDSNSWYVGGFSASASAGVSIAAISWGSTPNIRVYWQKGREELYEAAYGGSWNTPGQIKDASRPTPSLPDTFIAANSSGNIDISVFFQASGVSLQQWQWISGKGWSIGAVVPTGTPAGW
modifications: biotin label (site not stated)
notes: Bought, biotin-labeled; also called AAL

binding result (Human serum albumin [2]): no binding
B3: Lens culinaris lectin (other)
chain 1: TETTSFSITKFSPDQKNLIFQGDGYTTKGKLTLTKAVKSTVGRALYSTPIHIWDRDTGNVANFVTSFTFVIDAPSSYNVADEFTFFIAPVDTKPQTGGGYLGVFNSKEYDKTSQTVAVEFDTFYNAAWDPSNKERHIGIDVNSIKSVNTKSWNLQNGERANVVIAFNAATNVLTVTLTYP
chain 2: VTSYTLNEVVPLKDVVPEWVRIGFSATTGAEFAAHEVHSWSFHSELGGTSSS
modifications: biotin label (site not stated)
notes: Bought, biotin-labeled; The natural lectin is processed into alpha and beta chains; also called LCA
